In US20230110128A1, “USE OF ANTIBODY DRUG CONJUGATES COMPRISING TUBULIN DISRUPTING AGENTS TO TREAT SOLID TUMOR” (Seagen Inc., priority 2018, published 2023):

Legend:
MCF7 cells [1] = assay: HMGB1 release from MCF7 cells; type: cell-based
Description: (§1) Induction of ICD is also characterized by the secretion of ATP and HMGB1. Extracellular ATP serves as a strong chemotactic signal, promoting immune cell migration to the tumor site. Upon arrival, extracellular HMGB1 signals through various pro-inflammatory receptors (TLR2, TLR4, RAGE) to activate antigen-presenting cells, thereby promoting immune activity within the tumor.
as §1, with “MCF7 cells were treated with MMAE or an MMAE-containing ADC (SGN-LIV1A) for 16 hours and harvested in […] for western bot analysis. […] Induction” for “Induction”

MCF7 cells [2] = assay: ATP secretion from MCF7 cells; type: cell-based
[3] = system: PC-3 cells subcutaneously engrafted; assay: Immune cell infiltration of PC-3 tumors by flow cytometry; type: in vivo, athymic nude mice; conditions: single intraperitoneal dose, 8 days post-ADC treatment
Text: Athymic nude mice were subcutaneously engrafted with PC-3 cells. Upon reaching 200 cubic millimeters, mice received a single intraperitoneal dose of an MMAE-containing ADC (SGN-LIV1A or anti-CD71-MMAE). 8 days post-ADC treatment, tumors were excised and assessed for immune cell infiltration and composition by flow cytometry.

[4] = system: MCF7 cells subcutaneously engrafted; assay: Immune cell composition of MCF7 tumors by flow cytometry; type: in vivo; conditions: SOD mice with MCF7 tumors, single intraperitoneal dose, 8 days post-ADC treatment
Text: […] were subcutaneously engrafted with MCF7 cells. Upon reaching 200 cubic millimeters, mice received a single intraperitoneal dose of an MMAE-containing ADC (SGN-LIV1A or anti-CD71-MMAE). 8 days post-ADC treatment, tumors were excised and assessed for immune cell composition by flow cytometry.

[5] = system: PC-3 cells subcutaneously engrafted; assay: Cytokine/chemokine production in PC-3 tumor-bearing mice by ELISA; type: in vivo, athymic nude mice; conditions: PC-3 tumors, single intraperitoneal dose, 8 days post-ADC treatment
Description: In another study, athymic nude mice were subcutaneously engrafted with PC-3 cells. Upon reaching 200 cubic millimeters, mice received a single intraperitoneal dose of an MMAE-containing ADC (SGN-LIV1A or anti-CD71-MMAE). 8 days post-ADC treatment, tumors were excised and homogenized in RIPA buffer and cytokine/chemokine production was measured by ELISA. Peripheral cytokine levels were also measured in the serum by ELISA.

MCF7 breast cancer cells = assay: Western blot analysis of ER stress response in MCF7 cells; type: cell-based; conditions: FIG. 16A
Description: MCF7 breast cancer cells were treated with 100 nM MMAE for 16 hours and harvested RIPA buffer for western blot analysis.
as §1, with “MCF7 cells were treated with MMAE or an MMAE-containing ADC (SGN-LIV1A) for 16 hours and harvested in […] for western bot analysis. […] Induction” for “Induction”

B1: SGN-LIV1A (conjugate, chains of the INN, looked up)
VH: QVQLVQSGAEVKKPGASVKVSCKASGLTIEDYYMHWVRQAPGQGLEWMGWIDPENGDTEYGPKFQGRVTMTRDTSINTAYMELSRLRSDDTAVYYCAVHNAHYGTWFAYWGQGTLVTVSS
VL: DVVMTQSPLSLPVTLGQPASISCRSSQSLLHSSGNTYLEWYQQRPGQSPRPLIYKISTRFSGVPDRFSGSGSGTDFTLKISRVEAEDVGVYYCFQGSHVPYTFGGGTKVEIK
modifications: vedotin (MMAE) payload
Secretion of HMGB1 (MCF7 cells [1]): increased secretion
Secretion of ATP (MCF7 cells [2]): increased secretion
ATP secretion (MCF7 cells [2]; after 48 hours of treatment): Increased AIR secretion
Activation of tumor-infiltrating immune cells [3]: enhanced activation
Infiltration of immune cells into tumors [3]: increased infiltration of immune cells
Immune activation by tumor-infiltrating immune cells [4]: increased level of immune activation by tumor-infiltrating immune cells
Cytokine and chemokine production (intratumoral and serum) [5]: elevated cytokine and chemokine production
Severe ER stress (phosphorylation of IRE1 and JNK) (MCF7 breast cancer cells): elicits severe ER stress (phosphorylation of IRE1 and JNK)
